Source: PMC8617651, “Cloning, Expression and Characterization of UDP-Glucose Dehydrogenases” (Life, 2021)

What was measured:
Assay in all cases: UDP-GlcA formation by UHPLC, Michaelis-Menten fit, crude extract
Details in all cases: 0.5 mM NAD+, 50 mM Tris-HCl pH 8.0, 30 °C, 0.5 g/L extract protein, 1-5 mM UDP-Glc
[1] = substrate: O=c1ccn([C@@H]2O[C@H](CO[P@@](=O)(O)O[P@@](=O)(O)O[C@H]3O[C@H](CO)[C@@H](O)[C@H](O)[C@H]3O)[C@@H](O)[C@H]2O)c(=O)[nH]1; format: biochemical, Zymomonas mobilis
From the text: (§1) UDP-GlcA formation by UHPLC, Michaelis-Menten fit, crude extract on ZmUGD

[2] = substrate: O=c1ccn([C@@H]2O[C@H](CO[P@@](=O)(O)O[P@@](=O)(O)O[C@H]3O[C@H](CO)[C@@H](O)[C@H](O)[C@H]3O)[C@@H](O)[C@H]2O)c(=O)[nH]1; format: biochemical, Zymomonas mobilis; remark: listed apart in the source
From the text: as §1

[3] = substrate: O=c1ccn([C@@H]2O[C@H](CO[P@@](=O)(O)O[P@@](=O)(O)O[C@H]3O[C@H](CO)[C@@H](O)[C@H](O)[C@H]3O)[C@@H](O)[C@H]2O)c(=O)[nH]1; format: biochemical, Capra hircus
From the text: UDP-GlcA formation by UHPLC, Michaelis-Menten fit, crude extract on ChUGD

B1: ZmUGD (Zymomonas mobilis) (protein)
chain: MRITMIGSGYVGLVSGACFSDFGHNVICVDHDQEKIALLQKGVMPIYEPGLADMVANNVKAGRLSFSNDLASSVKDADAVFIAVGTPSRRGDGHADLSYVFAAAKEIAASVSDNTVVVDKSTVPVGTGDEVERIIREIAPDKKIWVASNPEFLREGAAIGDFKRPDRIVIGTENPEAREIMQEIYRPLYLNQSPILFTSRRSAELIKYASNAFLATKITFINEMADLCEAVGGDVQDVARGIGADNRIGSKFLHAGPGYGGSCFPKDTLALLKTAENFATPLRVVESVVTANNIRKRAMARKVLQAIGKDMRGQKIGLLGLTFKPNTDDMRDAPSLALIQGLEDAGAIIHAYDPEGMTQARPLLPNVVFEDEPYKVAEKAEALVIVTEWDAFRALDLKRIAGLLKTPLLLDLRNIYTEEEAKKAGLVYHGIGRPHAG
notes: N-terminal 6xHis tag (pRSFDuet-1), expressed in E. coli BL21 (DE3), crude soluble cell extract (host has a predicted own UGD)
Work on B1 yielded a Km [1] of 1234 µM and a Km [2] of 2586 µM.

B2: ChUGD (Capra hircus) (protein)
chain: MFEIKKICCIGAGYVGGPTCSVIAHMCPEIRVTVVDINESRINAWNSPTLPIYEPGLKEVVESCRGKNLFFSTNIDDAIKEADLVFISVNTPTKTYGMGKGRAADLKYIEACARRIVQNSHGYKIVTEKSTVPVRAAESIRRIFDANTKPNLNLQVLSNPEFLAEGTAIKDLKNPDRVLIGGDETPEGQRAVQALCAVYEHWVPREKILTTNTWSSELSKLTANAFLAQRISSINSISALCEATGADVEEVATAIGMDQRIGSKFLKASVGFGGSCFQKDVLNLVYLCEALNLPEVARYWQQVIDMNDYQRRRFASRIIDSLFNTVTDKKIAILGFAFKKDTGDTRESSSIYISKYLMDEGAHLHIYDPKVPREQIVVDLSHPGVSKDDQVARLVTISKDPYEACDGAHAVVICTEWDMFKELDYERIHKKMLKPAFIFDGRRVLDGLHNELQTIGFQIETIGKKVSSKRIPYAPSGEIPKFSLQDMPNKKPRV
notes: codon-optimized synthetic gene, N-terminal 6xHis tag, expressed in S. cerevisiae, crude soluble cell extract
With B2 the Km [3] was 841 µM.
